# Experimental data from patent publication CN114456266A (dated 2022).
# Ends that are not written are not given here.
# T1: RAD21*M (predicted separase cleavage fragment of RAD21, recombinant, expressed in HEK-293 cells) (UniProt O60216 173-450)
# T1 construct: domain: RAD21*M; Transiently expressed from a plasmid in HEK-293
# T1 sequence (looked up): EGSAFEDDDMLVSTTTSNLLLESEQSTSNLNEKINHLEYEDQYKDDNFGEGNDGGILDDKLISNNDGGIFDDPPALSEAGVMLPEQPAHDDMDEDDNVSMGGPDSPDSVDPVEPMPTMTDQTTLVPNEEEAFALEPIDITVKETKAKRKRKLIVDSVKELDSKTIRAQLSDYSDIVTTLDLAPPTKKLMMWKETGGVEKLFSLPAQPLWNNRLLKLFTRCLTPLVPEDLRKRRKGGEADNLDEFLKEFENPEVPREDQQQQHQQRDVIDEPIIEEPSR
# T2: GST fusion with RAD21 cleavage site 2 peptide IEEPSR at the COOH terminus (also: fused to GST at N-terminal side)
# T2 construct: E. coli extract of GST fused to the peptide near the RAD21 cleavage site; also called 肽段IEEPSR(切割位点2); not shown: GST (glutathione S-transferase) fusion partner, expressed in E. coli
# T2 chain: {GST}-IEEPSR
# T3: GST fusion with REC8 cleavage site 2 peptide PSEIEVPR at the COOH terminus (also: fused to GST at N-terminal side)
# T3 construct: not shown: GST (glutathione S-transferase) fusion partner, expressed in E. coli
# T3 chain: {GST}-PSEIEVPR
# Tests used:
# [1] = target: T1, RAD21*M (predicted separase cleavage …); assay: immunoprecipitation by the standard ChIP procedure of recombinant protein from HEK-293 extracts
# [2] = target: T2, GST fusion with RAD21 cleavage site 2 …; assay: immunoblot, hybridoma ascites on E. coli extracts of GST-peptide fusions
# [3] = target: T3, GST fusion with REC8 cleavage site 2 …; assay: as above
Binder,binding result [1],binding result [2],binding result [3]
"抗RAD21新表位单克隆抗体IB22-S (antibody, mouse IgG2a, kappa, V domains shown, Mouse hybridoma antibody (ascites used in blots); also called 1B22s) VH: EVQLVESGGGLVQPRGSLKLSCAASGFTFNNYAMNWVRQAPGKGLEWVARIRSKSKNYAIYYADSVKDRFTISRDDSQTMLYLQMNNLKTEDTGMYYCVAPSYSGSSPFAYWGQGTLVTVSA VL: DVLMTQTPLSLPVSLGDQASISCRSSQSFVHSNGNTYLEWYLQKPGQSPKLLIYKVSNRFSGVPDRFSGSGSGTDFTLKISRVEAEDLGVYYCFQGSHVPFTFGSGTKLEIKR",binds,binds,–
"抗REC8新表位单克隆抗体IE22-D (antibody, V domains shown, Mouse hybridoma antibody (ascites used in blots); also called 1E22d) VH: EVQLQQSGAEVVKPGASVKLSCTASGFNIKDTYMHWVNQRPEQGLEWIGRNDPANGNSKYDPKFQGKATITADTSSNTAYLQLSSLTSEDTAVYYCARGVRQGAWFAYWGQGTLVTVSA VL: DVLMTQTPLSLPVSLGDQASISCRSSQSIVHSNGNTYLEWYLQKPGQSPKLLIYKVSNRFSGVPDRFSGSGSGTDFTLKISRVEAEDLGVYYCFQGSHVFTFGAGTKLELKR",–,–,binds
